Experimental data published in article PMC6508567.

Experiments:
[1] = target: β-amylase WT (barley (Hordeum vulgare) cv. Harrington) (UniProt P16098)
[2] = target: β-amylase WT (barley (Hordeum vulgare) cv. Harrington) (UniProt P16098); assay: SPR; β-amylase immobilised by amine coupling on a CM5 chip, serpin Z4 injected at 0.6, 0.5, 0.4, 0.3 and 0.2 μM; PBS; Biacore T200
[3] = target: β-amylase WT (barley (Hordeum vulgare) cv. Harrington) (UniProt P16098); remark: listed apart in the source
[4] = target: β-amylase WT (barley (Hordeum vulgare) cv. Harrington) (UniProt P16098); remark: listed apart in the source
[5] = target: β-amylase WT (barley (Hordeum vulgare) cv. Harrington) (UniProt P16098); assay: MST; β-amylase labelled with an NHS-ester fluorescent dye (70 nM), unlabelled serpin Z4 from 40 μM to 1 nM; PBS with 0.1% Tween-20; Monolith NT.115; three replicates combined

Row | Binder | inhibition factor X inh from the residual peptidase activity of chymotrypsin on casein, serpin:protease 2:1 (chymotrypsin) | Vmax of β-amylase with serpin Z4 at a 1:5 molar ratio (Lineweaver-Burk), with or without DTT [1] [fold] | Kd [2] [nM] | EC50 of serpin Z4 for the enhancement of β-amylase activity, Betamyl-3 method [3] [nM] | EC50 of serpin Z4 for the enhancement of β-amylase activity, DNSA method [3] [nM] | β-amylase activity (DNSA) over 37-62°C with serpin Z4 at 1:5; at 50°C against β-amylase alone at optimal temperatures [4] [%] | Kd [5] [nM]
1 | serpin BsZx (natural protein) MATTDIRLSIAHQTRFAVRLASAISSPSHAKGSSGNAAFSPLSLHVALSLVAAGAAATRDQLAATLGAAEKGDAEGLHALAEQVVQVVLADASGAGGPRSFANVFVDSSLKLKPSFKDLVVGKYKGETQSVDFQTKAPEVAGQVNSWVEKITTGLIKEILPAGSVDSTTRLVLGNALYFKGSWTEKFDASKTKDEKFHLLDGSSVQTPFMSSTKKQYISSYDSLKVLKLPYQQGGDKRQFSMYILLPEAQDGLWNLANKLSTEPEFMEKHMPMQKVPVGQFKLPKFKISFGFEASDMLKGLGLQLPFSSEADLSEMVDSPAARSLYVSSVFHKSFVEVNEEGTEAAARTARVVTLRSLPVEPVKVDFVADHPFLFLIREDLTGVVLFVGHVFNPLVSA | 0.88 | – | – | – | – | – | –
2 | serpin Z4 (natural protein) MATTLATDVRLSIAHQTRFALRLRSAISSNPERAAGNVAFSPLSLHVALSLITAGAAATRDQLVAILGDGGAGDAKELNALAEQVVQFVLANESSTGGPRIAFANGIFVDASLSLKPSFEELAVCQYKAKTQSVDFQHKTLEAVGQVNSWVEQVTTGLIKQILPPGSVDNTTKLILGNALYFKGAWDQKFDESNTKCDSFHLLDGSSIQTQFMSSTKKQYISSSDNLKVLKLPYAKGHDKRQFSMYILLPGAQDGLWSLAKRLSTEPEFIENHIPKQTVEVGRFQLPKFKISYQFEASSLLRALGLQLPFSEEADLSEMVDSSQGLEISHVFHKSFVEVNEEGTEAGAATVAMGVAMSMPLKVDLVDFVANHPFLFLIREDIAGVVVFVGHVTNPLISA | – | 2 | 142 | 180 | 300 | 60 | 200
